Test results taken from patent US20150005474A1.

Key:
[1] = molecular target: TR5, non-glycosylated MUC1 peptide […]n with n=5; test: ELISA, 10 µg/ml antibody; reference is TR1 (SEQ ID NO: 72)
[2] = molecular target: glycosylated 30mer MUC1 peptide; test: ELISA, 10 µg/ml antibody; reference is the non-glycosylated 30mer
[3] = molecular target: glycosylated 30mer MUC1 peptide; test: ELISA of Example 5.1; reference is the non-glycosylated 30mer

Chain of glycosylated 30mer MUC1 peptide (peptide, as listed by the source): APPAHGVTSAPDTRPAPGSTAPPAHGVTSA
Chain of TR5, non-glycosylated MUC1 peptide […]n with n=5 (peptide, as listed by the source): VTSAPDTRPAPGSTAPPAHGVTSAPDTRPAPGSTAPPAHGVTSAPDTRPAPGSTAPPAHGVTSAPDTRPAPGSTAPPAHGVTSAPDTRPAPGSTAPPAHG

| factor (ratio of the signal with TR5 peptide to that with TR1 peptide) [1] | factor (ratio of glycosylated/non-glycosylated peptide) [2] | factor (glycosylated against non-glycosylated peptide) [3] | Substance |
| --- | --- | --- | --- |
| 1.1 | < 1.2 | – | C595 (antibody) |
| 2.1 | < 1.2 | 1.5 | SM3 (antibody) |
| – | < 1.2 | – | HMFG-1 (antibody) |
